# Measurements published in PMC8864220, “Transcriptional Regulation of the Creatine Utilization Genes of Corynebacterium glutamicum ATCC 14067 by AmtR, a Central Nitrogen Regulator”.
# T1: AmtR (Corynebacterium glutamicum ATCC 14067, UniProt H7C699 1-222)
# T1 sequence: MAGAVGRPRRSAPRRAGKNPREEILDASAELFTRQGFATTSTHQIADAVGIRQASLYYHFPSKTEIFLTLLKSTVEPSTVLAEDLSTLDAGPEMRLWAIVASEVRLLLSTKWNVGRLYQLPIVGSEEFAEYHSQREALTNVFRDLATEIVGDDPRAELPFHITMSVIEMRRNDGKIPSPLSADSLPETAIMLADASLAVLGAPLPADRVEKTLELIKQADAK
# B1: PcreT-1 (oligos PcrnT-1-S/A) (dsDNA)
# DNA 1: ACCACCAATGAAACCTATCGGTCTATAGAAATTGACATTGCT
# DNA 2: AGCAATGTCAATTTCTATAGACCGATAGGTTTCATTGGTGGT
# B2: PcreT-2 (oligos PcrnT-2-S/A) (dsDNA)
# DNA 1: ATTTATATTCTTTTCTATCACCCTATAGAAACATATTGGACG
# DNA 2: CGTCCAATATGTTTCTATAGGGTGATAGAAAAGAATATAAAT
# B3: PhyuB-1 (dsDNA)
# DNA 1: TTGAAAACTTTTCGATAGAGCAATAGAAATTTCCCAGCCCAA
# DNA 2: TTGGGCTGGGAAATTTCTATTGCTCTATCGAAAAGTTTTCAA
# B4: PhyuB-2 (dsDNA)
# DNA 1: CCCGGGGTGATTTTCTATCGTGTGATAGGTTTAATTCTGTTG
# DNA 2: CAACAGAATTAAACCTATCACACGATAGAAAATCACCCCGGG
# Target: T1, AmtR
# Test: EMSA; EMSA, 20 ul: 10 mM Tris pH 7.0, 50 mM KCl, 1 mM DTT, 5 mM MgCl (so in the source), 10 mM EDTA, 2.5% glycerol, 0.05% NP-40, 50 ng/ul poly(dIdC); 100 ng DNA, 0-0.8 ug AmtR; 6% native PAGE, 0.5x TBE, GelRed; temperature not stated
# Conditions: protein: recombinant; tags: C-terminal His6; chain copies: 2; blunt
row,Binder,binding result
1,B1,binds
2,B2,binds
3,B3,binds
4,B4,binds
